The record followed here is patent publication US20110053831A1.

A value given as a limit tells only on which side of the number the result lay.

The target of this assay is JUN1 fragment of c-Jun (UniProt P05412). The experiment in a line: cell-based or functional assay.

Take RSDYKDDDDKIIIYIFLNISNSIKNIFDNMGKIR [SEQ ID NO 42]: the decrease in growth of yeast on HTU media (reverse two-hybrid) is more than 50%.

B1: SEQ ID NO 72 (peptide)
peptide: RSDYKDDDDKAYQSIIGAGKSTLIKALTGVYHADRGTIWLEGQAISPKNTAHAQQCRRRPCSLTWYQLMHRYRY
Molecule B1 had a decrease in growth of yeast on HTU media (reverse two-hybrid) of more than 50%.

On to RSDYKDDDDNTPHSSDGHNNP [SEQ ID NO 52], for which the decrease in growth of yeast on HTU media (reverse two-hybrid) was more than 50%. As for RSDYKDDDDKAYQSM [SEQ ID NO 26], the decrease in growth of yeast on HTU media (reverse two-hybrid) is more than 50%.

B2: SEQ ID NO 34 (peptide)
peptide: RSDYKDDDDKTYQSIKGPENKVKMYFLNDLNFSRRDAGFKARKDALDIASDYENISVVNIPLWGGVVQRIISSVKLSTFLCGLENKDVLIFNFPMAKPFWHILSFFHRLLKFRIVLLIDDKPCRRRPCSLTWYQLMHRYRY
With B2, the decrease in growth of yeast on HTU media (reverse two-hybrid) is more than 50%. In the case of RSDYKDDDDKAYQSIRSGGIESSSKRER [SEQ ID NO 56] it was more than 50%.

B3: SEQ ID NO 44 (peptide)
peptide: RSDYKDDDDKKDSIRRRGENISSQEVEAVLMSHPEVVNAAVYPVRGDLPGD
The molecule B3 yielded a decrease in growth of yeast on HTU media (reverse two-hybrid) of more than 50%.

B4: SEQ ID NO 50 (peptide)
peptide: B3 peptide
For B4, the decrease in growth of yeast on HTU media (reverse two-hybrid) was more than 50%. Then RSDYKDDDDKANQLPKILAGRLIFIKC [SEQ ID NO 70], with more than 50%.

B5: SEQ ID NO 64 (peptide)
peptide: RSDYKDDDDKAYQSISLAGYHGDTSRTFLVGSVSATARKLVEATQETMIDYTCRRRPCSLTWYQLMHRYRY
B5 showed a decrease in growth of yeast on HTU media (reverse two-hybrid) of more than 50%.

B6: SEQ ID NO 66 (peptide)
peptide: RSDYKDDDDKAYQSIMAVAAQQPVAFLVGRQRRRGQVGIDSGDQHLRTPLFHELCRRRPCSLAWYQLMHRYRY
In turn, B6 returned a decrease in growth of yeast on HTU media (reverse two-hybrid) of more than 50%. In the case of RSDYKDDDDKAYQSKRL [SEQ ID NO 28] it was more than 50%. In the case of RSDYKDDDDKIYSSILWGTKWCVLLVITP [SEQ ID NO 40] it was more than 50%; in that of RSDYKDDDDKAYQSIIANEEEREKNFASSKKDGSYTDLL [SEQ ID NO 30], more than 50%.

Turning to RSDYKDDDDKAYQSISFLSQ [SEQ ID NO 48], the decrease in growth of yeast on HTU media (reverse two-hybrid) was more than 50%. For RSDYKDDDDKAYQSIIH [SEQ ID NO 36], the decrease in growth of yeast on HTU media (reverse two-hybrid) was more than 50%. Molecule RSDYKDDDDKAYQSISVVVVLVV [SEQ ID NO 68] gave a decrease in growth of yeast on HTU media (reverse two-hybrid) of more than 50%. The molecule RSDYKDDDDKAYQESTKALVEGGADLILIETVLVVVVLVV [SEQ ID NO 32] had a decrease in growth of yeast on HTU media (reverse two-hybrid) of more than 50%.

RSDYKDDDDKAYQSINSSPVLPENSQELSLHLKQHVTKS [SEQ ID NO 54] showed a decrease in growth of yeast on HTU media (reverse two-hybrid) of more than 50%. Then RSDYKDDDDKLINQSYAYPYIY [SEQ ID NO 38], with more than 50%; and RSDYKDDDDKGLQGRRQPGQQPQGRWSGRALPAHR [SEQ ID NO 60], with more than 50%; and RSDYKDDDDKGLQGRRQPGQQPQGRWSGRALPAHR [SEQ ID NO 62], with more than 50%. Then RSDYKDDDDKGLQGRRRQGYQSIKP [SEQ ID NO 58], with more than 50%; and RSDYKDDDDKLYQSLLTATKELLFVAPVAKAFTSCD [SEQ ID NO 46], with more than 50%.
